Read-outs that look alike come from different tables or passages of the source.
Assays:
ClCC1CO1 = experiment: purified protein; settings: 2 mM MOPS-SO4 pH 7.0, 30 °C
OC(CCl)CCl = test system: T1, OC(CCl)CCl; experiment: dehalogenation, halide release assay, Michaelis-Menten fit; type: biochemical, Agrobacterium tumefaciens; settings: 25 mM Tris-SO4 pH 7.0, 30 °C
T1 construct: E. coli BL21(DE3); homotetramer
Text: (§1) dehalogenation, halide release assay, Michaelis-Menten fit on HheC

[1] = substrate: OC(CCl)CCl; experiment: as above; type: biochemical, Agrobacterium tumefaciens; settings: 25 mM Tris-SO4 pH 7.0, 30 °C
Text: as §1

purified protein = substrate: ClCC1CO1; experiment: purified protein; settings: 2 mM MOPS-SO4 pH 7.0, 30 °C, fixed nonsaturating azide (100 mM in table footnote, 60 mM in methods)
[2] = substrate: C1CCC2OC2C1; type: biochemical, Ilumatobacter coccineus; settings: 2 mM MOPS-SO4 pH 7.0, 22 °C, fixed azide (100 mM in table footnote, 60 mM in methods)
[3] = substrate: C1CCC2OC2C1; type: biochemical, Ilumatobacter coccineus; settings: 2 mM MOPS-SO4 pH 7.0, 22 °C, fixed azide (100 mM in table footnote, 60 mM in methods); remark: listed apart in the source
[4] = substrate: C1CCC2OC2C1; type: biochemical, Ilumatobacter coccineus; settings: 2 mM MOPS-SO4 pH 7.0, 22 °C, fixed azide (100 mM in table footnote, 60 mM in methods); remark: listed apart in the source
[5] = substrate: C1CCC2OC2C1; type: biochemical, Ilumatobacter coccineus; settings: 2 mM MOPS-SO4 pH 7.0, 22 °C, fixed 100 mM azide
[6] = fixed nonsaturating azide (100 mM in table footnote, 60 mM in methods)

HheC (Agrobacterium tumefaciens; F12Y)
K0.5 (ClCC1CO1; [6]): 14.2 ± 0.67 mM
Km (OC(CCl)CCl): 980 ± 190 µM
kcat (OC(CCl)CCl): 6.30 ± 0.26 s⁻¹

HheC (Agrobacterium tumefaciens; G14A)
K0.5 (ClCC1CO1; fixed 100 mM azide): 49.5 ± 1.52 mM
Km (OC(CCl)CCl): 920 ± 370 µM
kcat (OC(CCl)CCl): 0.05 ± 0.00 s⁻¹

HheC (Agrobacterium tumefaciens; T7S)
K0.5 (ClCC1CO1; [6]): 40.3 ± 6.88 mM
Km (OC(CCl)CCl): 810 ± 230 µM
kcat (OC(CCl)CCl): 1.37 ± 0.07 s⁻¹

B1: HheC (Agrobacterium tumefaciens) (protein)
chain: MSTAIVTNVKHFGGMGSALRLSEAGHTVACHDESFKQKDELEAFAETYPQLKPMSEQEPAELIEAVTSAYGQVDVLVSNDIFAPEFQPIDKYAVEDYRGAVEALQIRPFALVNAVASQMKKRKSGHIIFITSATPFGPWKELSTYTSARAGACTLANALSKELGEYNIPVFAIGPNYLHSEDSPYFYPTEPWKTNPEHVAHVKKVTALQRLGTQKELGELVAFLASGSCDYLTGQVFWLAGGFPMIERWPGMPE
notes: E. coli BL21(DE3); homotetramer
Km [1]: 450 ± 140 µM
kcat [1]: 1.84 ± 0.11 s⁻¹
K0.5 (purified protein): 18.8 ± 1.24 mM

B2: HheG (Ilumatobacter coccineus YM16-304; T13S) (protein)
chain: MSNAENRPVALISMATGYVGPALARTMADRGFDLVLHGTAGDGTMVGVEESFDSQIADLAKRGADVLTISDVDLTTRTGNQSMIERVLERFGRLDSACLVTGLIVTGKFLDMTDDQWAKVKATNLDMVFHGLQAVLPPMVAAGAGQCVVFTSATGGRPDPMVSIYGGTRAGANGIVRAVGLEHARHGVQVNAIGTNYMDFPGFLKASRADGDPERRAMIEAQVPLRRLGTMDELSSVTAGLLDGSNRFQTGQFFDFSGGWGA
notes: as for B1
K0.5 [2]: 44.8 ± 1.29 mM

B3: HheG (Ilumatobacter coccineus YM16-304) (protein)
chain: MSNAENRPVALITMATGYVGPALARTMADRGFDLVLHGTAGDGTMVGVEESFDSQIADLAKRGADVLTISDVDLTTRTGNQSMIERVLERFGRLDSACLVTGLIVTGKFLDMTDDQWAKVKATNLDMVFHGLQAVLPPMVAAGAGQCVVFTSATGGRPDPMVSIYGGTRAGANGIVRAVGLEHARHGVQVNAIGTNYMDFPGFLKASRADGDPERRAMIEAQVPLRRLGTMDELSSVTAGLLDGSNRFQTGQFFDFSGGWGA
notes: as for B1
K0.5 [3]: 39.4 ± 2.69 mM

B4: HheG (Ilumatobacter coccineus YM16-304; Y18F) (protein)
chain: MSNAENRPVALITMATGFVGPALARTMADRGFDLVLHGTAGDGTMVGVEESFDSQIADLAKRGADVLTISDVDLTTRTGNQSMIERVLERFGRLDSACLVTGLIVTGKFLDMTDDQWAKVKATNLDMVFHGLQAVLPPMVAAGAGQCVVFTSATGGRPDPMVSIYGGTRAGANGIVRAVGLEHARHGVQVNAIGTNYMDFPGFLKASRADGDPERRAMIEAQVPLRRLGTMDELSSVTAGLLDGSNRFQTGQFFDFSGGWGA
notes: as for B1
K0.5 [4]: 66.4 ± 1.42 mM

B5: HheG (Ilumatobacter coccineus YM16-304; G20A) (protein)
chain: MSNAENRPVALITMATGYVAPALARTMADRGFDLVLHGTAGDGTMVGVEESFDSQIADLAKRGADVLTISDVDLTTRTGNQSMIERVLERFGRLDSACLVTGLIVTGKFLDMTDDQWAKVKATNLDMVFHGLQAVLPPMVAAGAGQCVVFTSATGGRPDPMVSIYGGTRAGANGIVRAVGLEHARHGVQVNAIGTNYMDFPGFLKASRADGDPERRAMIEAQVPLRRLGTMDELSSVTAGLLDGSNRFQTGQFFDFSGGWGA
notes: as for B1
K0.5 [5]: 42.2 ± 3.64 mM
